Patent US20060148705A1 (Regeneron, published 2006)
Values belong to the binder of their own block, whether it stands above or below them.

Tests used:
human VEGF165 [1] = target: T1, human VEGF165 (human, UniProt P15692-4 27-191); assay: half-life of dissociation from hVEGF165, as described in WO/0075319
T1 construct: also called hVEGF165

human VEGF165 [2] = target: T1, human VEGF165; assay: kinetic dissociation rate from hVEGF165, as described in WO/0075319
human VEGF165 [3] = target: T1, human VEGF165; assay: BIAcore 2000; t½ = 0.693/kd
Description: (§1) Binding assays were carried out by first capturing around 100 RU of each fusion protein construct to the immobilized anti-VEGFR1 mAb, after which various concentrations (0-2 nM) of human VEGF165 were injected over the captured fusion protein surface at a flow rate of 100 μl/min for 2 minutes. The fusion protein constructs binding kinetic parameters including ka (1/Ms) (association rate constant), kd (1/s) (dissociation rate constant) and KD (dissociation equilibrium constant) were determined using the BIA evaluation 4.1 computer program (Biacore, Inc.), and t½ was determined using formula 0.693/kd (dissociation rate).

human VEGF165 [4] = target: T1, human VEGF165; assay: BIAcore 2000; fusion protein captured on anti-VEGFR1 mAb, human VEGF165 (0-2 nM) injected
Description: as §1

T1 sequence (P15692 other isoform, or with tags, fused parts or gaps limits assumed): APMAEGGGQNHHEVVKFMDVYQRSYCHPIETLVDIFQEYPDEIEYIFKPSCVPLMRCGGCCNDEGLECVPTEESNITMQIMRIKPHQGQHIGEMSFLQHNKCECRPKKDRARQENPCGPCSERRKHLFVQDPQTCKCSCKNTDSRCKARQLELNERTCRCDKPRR

- T1/2 (human VEGF165 [1]): 1.68 min
- koff (human VEGF165 [2]): 0.00674 s⁻¹
B1: recombinant monomeric R1R2-myc myc his (receptor, not shown: small tags and cut ends)
chain: GRPFVEMYSEIPEIIHMTEGRELVIPCRVTSPNITVTLKKFPLDTLIPDGKRIIWDSRKGFIISNATYKEIGLLTCEATVNGHLYKTNYLTHRQTNTIIDVVLSPSHGIELSVGEKLVLNCTARTELNVGIDFNWEYPSSKHQHKKLVNRDLKTQSGSEMKKFLSTLTIDGVTRSDQGLYTCAASSGLMTKKNSTFVRVHEK
modifications: Monomer with a C-terminal myc-myc-His tag that is not given in letters and is left out.
notes: Monomer; also called R1R2-myc myc his monomer

- t½ (human VEGF165 [3]): 24.1 h
- Kd (human VEGF165 [4]): 1.76 pM
- koff (human VEGF165 [4]): 8e-06 s⁻¹
- kon (human VEGF165 [4]): 4.54e+06 M⁻¹ s⁻¹
B2: fusion protein R1R2R1R2 (SEQ ID NO:24), single chain VEGF mini-trap (receptor)
chain: SDTGRPFVEMYSEIPEIIHMTEGRELVIPCRVTSPNITVTLKKFPLDTLIPDGKRIIWDSRKGFIISNATYKEIGLLTCEATVNGHLYKTNYLTHRQTNTIIDVVLSPSHGIELSVGEKLVLNCTARTELNVGIDFNWEYPSSKHQHKKLVNRDLKTQSGSEMKKFLSTLTIDGVTRSDQGLYTCAASSGLMTKKNSTFVRVHEKGPGRPFVEMYSEIPEIIHMTEGRELVIPCRVTSPNITVTLKKFPLDTLIPDGKRIIWDSRKGFIISNATYKEIGLLTCEATVNGHLYKTNYLTHRQTNTIIDVVLSPSHGIELSVGEKLVLNCTARTELNVGIDFNWEYPSSKHQHKKLVNRDLKTQSGSEMKKFLSTLTIDGVTRSDQGLYTCAASSGLMTKKNSTFVRVHEK
notes: Monomer, secreted from CHO K1 cells; also called R1R2-R1R2 VEGF mini-trap; (R1R2)2
